The values below come from the supplement of paper PMC11246515.

± gives the standard deviation of the averaged measurements. Where only a bound is given, the exact number is not on record here.

This data set is described as follows: total protein half-life in vivo (active degradation + dilution); higher = more stable protein.
Setting [1] is: E. coli NCM3722 delta-clpP delta-lon delta-hslV, growth: N-lim chemostat, doubling time 6 h.
Setting [2] is: E. coli NCM3722 delta-hslV, growth: N-lim chemostat, doubling time 6 h.
Setting [3] is: E. coli NCM3722 delta-lon, growth: N-lim chemostat, doubling time 6 h.
Setting [4] is: E. coli NCM3722 delta-smpB, growth: N-lim chemostat, doubling time 6 h.
[5] abbreviates: wild type E. coli NCM3722, growth: C-lim chemostat, doubling time 6 h.
The mark [6] stands for this setting: wild type E. coli NCM3722, growth: C-lim chemostat, doubling time 12 h.
Where [7] appears, read: wild type E. coli NCM3722, growth: N-lim chemostat, doubling time 6 h.
Where [8] appears, read: wild type E. coli NCM3722, growth: N-lim chemostat, doubling time 12 h.
[9] abbreviates: wild type E. coli NCM3722, growth: P-lim chemostat, doubling time 6 h.
[10] abbreviates: wild type E. coli NCM3722, growth: P-lim chemostat, doubling time 12 h.
[11] abbreviates: wild type E. coli NCM3722, growth: C-lim chemostat, doubling time 3 h.
Setting [12] is: E. coli NCM3722 delta-clpP, growth: N-lim chemostat, doubling time 6 h.

As to “MSNQFGDTRIDDDLTLLSETLEEVLRSSGDPADQKYVELKARAEKALDDVKKRVSQASDSYYYRAKQAVYRADDYVHEKPWQGIGVGAAVGLVLGLLLARR [P0AEH5]”, the “total protein half-life in vivo” value by setting is: under setting [1], 6.419 ± 0.022 h; under setting [2], 6.88 ± 0.34 h; under setting [3], over 8 h; under setting [4], 5.64 ± 0.42 h; under setting [5], 6.46 ± 0.78 h; under setting [6], 10.1 ± 0.52 h. In addition, the “total protein half-life in vivo” value by setting is: under setting [7], 5.99 ± 0.7 h; under setting [8], 14.8 ± 0.89 h; under setting [9], 5.16 ± 1.5 h; under setting [10], 12.6 ± 0.4 h.
Regarding “MKKIIETQRAPGAIGPYVQGVDLGSMVFTSGQIPVCPQTGEIPADVQDQARLSLENVKAIVVAAGLSVGDIIKMTVFITDLNDFATINEVYKQFFDEHQATYPTRSCVQVARLPKDVKLEIEAIAVRSA [P0AGL2]”, the “total protein half-life in vivo” value is, setting by setting: under setting [2], 4.94 ± 0.13 h; under setting [3], 5.08 ± 0.99 h; under setting [4], 3.9 h; under setting [11], 2.79 h; under setting [5], 5.42 h; under setting [6], 9.66 ± 1.9 h. Besides, the “total protein half-life in vivo” value reads like this: under setting [8], 7.12 h; under setting [9], 6.2 h; under setting [10], 10.6 ± 0.78 h.
In the case of “MTVKQTVEITNKLGMHARPAMKLFELMQGFDAEVLLRNDEGTEAEANSVIALLMLDSAKGRQIEVEATGPQEEEALAAVIALFNSGFDED [P0A9N0]”, the “total protein half-life in vivo” value came out at 4.886 ± 0.034 h under setting [1]; 2.96 h under setting [12]; 2.41 h under setting [2]; 2.28 h under setting [3]; 2.09 h under setting [4]; 2.15 ± 0.18 h under setting [11]. Besides, the “total protein half-life in vivo” value is, setting by setting: under setting [5], 3.27 ± 0.19 h; under setting [6], 4.27 h; under setting [7], 2.7 h; under setting [8], 3.97 ± 0.24 h; under setting [9], 2.35 h; under setting [10], 4.46 ± 0.45 h.
With “MIWKRKITLEALNAMGEGNMVGFLDIRFEHIGDDTLEATMPVDSRTKQPFGLLHGGASVVLAESIGSVAGYLCTEGEQKVVGLEINANHVRSAREGRVRGVCKPLHLGSRHQVWQIEIFDEKGRLCCSSRLTTAIL”, the “total protein half-life in vivo” value came to 4.78 h under setting [1]; 3.39 h under setting [12]; 4.22 h under setting [2]; 4.14 h under setting [3]; 3.73 ± 0.23 h under setting [4]; 2.75 ± 0.11 h under setting [11]. For the same sequence, the “total protein half-life in vivo” value came out at 4.23 h under setting [7], 9.08 ± 3.8 h under setting [8], 6.54 h under setting [9] and 10.7 h under setting [10].
“MDMDLNNRLTEDETLEQAYDIFLELAADNLDPADVLLFNLQFEERGGAELFDPAEDWQEHVDFDLNPDFFAEVVIGLADSEDGEINDVFARILLCREKDHKLCHIIWRE [P0A8L7]”: the “total protein half-life in vivo” value runs as follows: under setting [1], 5.64 ± 0.096 h; under setting [12], 4.35 ± 0.49 h; under setting [2], 3.78 h; under setting [3], 5.055 ± 0.0098 h; under setting [4], 3.64 h; under setting [11], 2.74 ± 0.24 h. Moreover, the “total protein half-life in vivo” value under setting [5] worked out at 5.72 ± 0.71 h; the “total protein half-life in vivo” value under setting [6] stood at 8.89 h; the “total protein half-life in vivo” value under setting [7] was 3.83 h; the “total protein half-life in vivo” value under setting [8] turned out to be 7.29 ± 0.12 h; the “total protein half-life in vivo” value under setting [9] is over 8 h; the “total protein half-life in vivo” value under setting [10] came to 11.2 ± 3.8 h.
Regarding “MFKKSVLFATLLSGVMAFSTNADDKIILKHISVSSVSASPTVLEDTIADIARKYNASSWKVTSMRIDNNSTATAVLYK”, the “total protein half-life in vivo” value under setting [2] worked out at 5.17 ± 1.6 h; the “total protein half-life in vivo” value under setting [4] stood at 6.02 ± 0.31 h; the “total protein half-life in vivo” value under setting [5] was determined as 3.54 ± 0.083 h; the “total protein half-life in vivo” value under setting [6] is 6.51 ± 5.1 h; the “total protein half-life in vivo” value under setting [7] was determined as 3.93 h; the “total protein half-life in vivo” value under setting [8] came to 9.35 ± 3.8 h. Moreover, the “total protein half-life in vivo” value under setting [9] was 5.33 h and the “total protein half-life in vivo” value under setting [10] came out at 11.5 h.
Turning to “MVTFHTNHGDIVIKTFDDKAPETVKNFLDYCREGFYNNTIFHRVINGFMIQGGGFEPGMKQKATKEPIKNEANNGLKNTRGTLAMARTQAPHSATAQFFINVVDNDFLNFSGESLQGWGYCVFAEVVDGMDVVDKIKGVATGRSGMHQDVPKEDVIIESVTVSE”, the “total protein half-life in vivo” value under setting [1] is 4.83 ± 0.65 h; the “total protein half-life in vivo” value under setting [12] is 4.38 h; the “total protein half-life in vivo” value under setting [2] amounted to 4.92 ± 0.92 h; the “total protein half-life in vivo” value under setting [3] was found to be 4.83 ± 0.27 h; the “total protein half-life in vivo” value under setting [4] was found to be 4.11 ± 0.046 h; the “total protein half-life in vivo” value under setting [11] amounted to 3.3 ± 0.97 h. Further, the “total protein half-life in vivo” value under setting [5] was 6.03 ± 0.56 h; the “total protein half-life in vivo” value under setting [6] stood at 9.92 ± 0.88 h; the “total protein half-life in vivo” value under setting [7] was 4.507 ± 0.039 h; the “total protein half-life in vivo” value under setting [8] amounted to 7.49 ± 1.2 h; the “total protein half-life in vivo” value under setting [10] is 11.1 ± 0.3 h.
On to “MLHPRARTMLLLSLPAVAIGIASSLILIVVMKIASVLQNLLWQRLPGTLGIAQDSPLWIIGVLTLTGIAVGLVIRFSQGHAGPDPACEPLIGAPVPPSALPGLIVALILGLAGGVSLGPEHPIMTVNIALAVAIGARLLPRVNRMEWTILASAGTIGALFGTPVAAALIFSQTLNGSSEVPLWDRLFAPLMAAAAGALTTGLFFHPHFSLPIAHYGQMEMTDILSGAIVAAIAIAAGMVAVWCLPRLHAMMHQMKNPVLVLGIGGFILGILGVIGGPVSLFKGLDEMQQMVANQAFSTSDYFLLAVIKLAALVVAAASGFRGGRIFPAVFVGVALGLMLHEHVPAVPAAITVSCAILGIVLVVTRDGWLSLFMAAVVVPNTTLLPLLCIVMLPAWLLLAGKPMMMVNRPKQQPPHDNV”, for which the “total protein half-life in vivo” value by setting is: under setting [12], 6.28 h; under setting [2], 7.8 h; under setting [3], 5.98 h; under setting [6], 11.1 h; under setting [7], 6.78 h; under setting [8], 12.5 h. In addition, under setting [10], the “total protein half-life in vivo” value was over 16 h.
